Results as given in patent US20140206628A1 (University of Washington, published 2014).
Where two headings read alike, the source gives them in different places.

B1: HB36.1 (Asp47Ser) (designed binder)
chain: MSNAMDGQQLNRLLLEWIGAWDPFGLGKDAYDVEAEAVLQAVYETESAFDLAMRIMWIYAFAFNRPIPFPHAQKLARRLLELKQAASSPLPLE
B2: HB80.1 (Met26Thr, Asn36Lys) (designed binder)
chain: MASTRGSGRPWDFSENLAFELALAFTNKDTPDRWAKVAQYVSGRTPEEVKKHYEILVEDIKYIESGKVPFPNYRTTGGNMKTDEKRFRNLKIRLE

Tests used:
[1] = target: T1, A/South Carolina/1/1918 (H1N1) hemagglutinin ectodomain, biotinylated (Influenza A virus A/South …)
[2] = target: T1, A/South Carolina/1/1918 (H1N1) …; remark: listed apart in the source
[3] = target: T1, A/South Carolina/1/1918 (H1N1) …; remark: listed apart in the source
[4] = target: T1, A/South Carolina/1/1918 (H1N1) …; remark: listed apart in the source

Row | Binder | fold increase of binding affinity relative to HB36 [1] [fold] | Kd [2] [nM] | Kd [3] [nM] | Kd [4] [nM]
1 | B1 | ~40 | 5 | 2 to 5 | –
2 | B2 | – | 7.5 | – | 7.5
